In US20230365709A1 (published 2023):
Positions count from the first letter of the chain named.

Assays:
[1] = biological target: T1, recombinant human CD64 expressed on the surface of CHO cells (human, UniProt P12314 16-374); test: flow cytometry, receptor-expressing CHO cells
T1 construct: whole, on cells; also called huCD64
Protocol: (§1) The CHO cells were incubated with serial dilutions of the indicated trispecific constructs and control constructs at 37° C., and cell surface bound antibodies were detected by FITC-conjugated goat anti-human IgG Fc and flow cytometric analysis. Measured median fluorescence intensity values were used to calculate apparent affinities (KD) by non-linear regression.

[2] = biological target: T2, recombinant human CD32A expressed on the surface of CHO cells (human, UniProt P12318 34-317); test: flow cytometry, CHO-huCD32A cells, apparent KD; SD n.a.
T2 construct: whole, on cells; also called huCD32A
T2 sequence (looked up): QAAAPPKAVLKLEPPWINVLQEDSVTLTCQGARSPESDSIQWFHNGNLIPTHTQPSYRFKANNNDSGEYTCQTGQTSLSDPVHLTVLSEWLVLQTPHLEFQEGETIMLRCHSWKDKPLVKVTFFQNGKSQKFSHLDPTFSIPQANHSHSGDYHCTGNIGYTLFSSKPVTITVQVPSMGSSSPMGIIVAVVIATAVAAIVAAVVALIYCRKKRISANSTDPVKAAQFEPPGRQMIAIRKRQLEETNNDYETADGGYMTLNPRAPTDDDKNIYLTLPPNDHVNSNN
Protocol: as §1

[3] = biological target: T1, recombinant human CD64 expressed on the …; test: flow cytometry, CHO-huCD64 cells, apparent KD; SD 13.7
Protocol: as §1

[4] = biological target: T2, recombinant human CD32A expressed on …; test: flow cytometry, CHO-huCD32A cells, apparent KD; SD 719.6
Protocol: as §1

[5] = biological target: T1, recombinant human CD64 expressed on the …; test: flow cytometry, CHO-huCD64 cells, apparent KD; SD 8.7
Protocol: as §1

[6] = biological target: T2, recombinant human CD32A expressed on …; test: flow cytometry, CHO-huCD32A cells, apparent KD; SD 118.9
Protocol: as §1

[7] = biological target: T1, recombinant human CD64 expressed on the …; test: flow cytometry, CHO-huCD64 cells, apparent KD; SD 3.4
Protocol: as §1

[8] = biological target: T2, recombinant human CD32A expressed on …; test: flow cytometry, CHO-huCD32A cells, apparent KD; SD 236.8
Protocol: as §1

[9] = biological target: T1, recombinant human CD64 expressed on the …; test: flow cytometry, CHO-huCD64 cells, apparent KD; SD 7.0
Protocol: as §1

[10] = biological target: T3, recombinant human NKp46 expressed on the surface of CHO cells (human, UniProt O76036 22-304); test: flow cytometry, CHO-huNKp46 cells, apparent KD; SD 6.2
T3 construct: whole, on cells; also called huNKp46; CD355
T3 sequence (O76036 22-304): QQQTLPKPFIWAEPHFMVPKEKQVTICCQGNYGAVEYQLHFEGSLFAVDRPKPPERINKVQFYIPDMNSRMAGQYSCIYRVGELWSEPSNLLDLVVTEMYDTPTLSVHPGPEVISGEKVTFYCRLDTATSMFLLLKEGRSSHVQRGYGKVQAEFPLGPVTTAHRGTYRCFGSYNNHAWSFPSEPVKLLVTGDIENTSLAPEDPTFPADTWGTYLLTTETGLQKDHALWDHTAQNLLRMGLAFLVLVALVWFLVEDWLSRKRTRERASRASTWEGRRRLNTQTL
Protocol: as §1

T1 sequence (P12314 16-374): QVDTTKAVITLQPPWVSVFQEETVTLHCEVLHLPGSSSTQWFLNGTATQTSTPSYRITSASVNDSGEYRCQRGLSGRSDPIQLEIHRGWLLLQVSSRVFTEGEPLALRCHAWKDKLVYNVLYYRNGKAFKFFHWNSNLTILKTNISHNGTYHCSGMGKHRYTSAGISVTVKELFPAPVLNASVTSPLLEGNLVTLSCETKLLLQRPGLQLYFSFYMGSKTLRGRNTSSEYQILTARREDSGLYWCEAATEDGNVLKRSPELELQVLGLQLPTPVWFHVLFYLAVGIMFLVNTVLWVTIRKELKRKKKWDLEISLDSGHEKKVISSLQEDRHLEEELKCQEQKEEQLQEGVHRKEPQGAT

B1: 2Fab-1scFv-AFc-1 (bispecific antibody, human IgG1, kappa)
heavy: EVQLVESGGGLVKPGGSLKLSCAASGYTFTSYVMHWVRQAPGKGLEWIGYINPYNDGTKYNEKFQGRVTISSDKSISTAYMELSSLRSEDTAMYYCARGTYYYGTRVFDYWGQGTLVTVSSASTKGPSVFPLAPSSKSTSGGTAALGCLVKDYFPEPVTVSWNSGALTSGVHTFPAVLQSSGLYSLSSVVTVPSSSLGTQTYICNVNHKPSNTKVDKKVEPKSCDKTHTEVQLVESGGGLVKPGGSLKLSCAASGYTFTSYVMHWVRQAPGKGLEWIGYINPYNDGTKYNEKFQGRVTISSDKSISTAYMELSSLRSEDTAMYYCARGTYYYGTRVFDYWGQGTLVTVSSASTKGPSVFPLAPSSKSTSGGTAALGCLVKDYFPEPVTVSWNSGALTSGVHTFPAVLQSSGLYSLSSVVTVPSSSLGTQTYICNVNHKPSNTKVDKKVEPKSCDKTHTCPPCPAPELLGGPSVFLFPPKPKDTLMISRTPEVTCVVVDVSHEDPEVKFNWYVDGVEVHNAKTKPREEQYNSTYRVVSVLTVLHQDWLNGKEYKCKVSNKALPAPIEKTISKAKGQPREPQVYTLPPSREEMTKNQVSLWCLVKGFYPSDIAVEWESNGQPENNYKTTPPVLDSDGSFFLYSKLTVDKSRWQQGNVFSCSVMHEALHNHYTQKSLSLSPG
light: DIVMTQSPATLSLSPGERATLSCRSSKSLQNVNGNTYLYWFQQKPGQSPQLLIYRMSNLNSGVPDRFSGSGSGTEFTLTISSLEPEDFAVYYCMQHLEYPITFGAGTKLEIKRTVAAPSVFIFPPSDEQLKSGTASVVCLLNNFYPREAKVQWKVDNALQSGNSQESVTEQDSKDSTYSLSSTLTLSKADYEKHKVYACEVTHQGLSSPVTKSFNRGEC
chain: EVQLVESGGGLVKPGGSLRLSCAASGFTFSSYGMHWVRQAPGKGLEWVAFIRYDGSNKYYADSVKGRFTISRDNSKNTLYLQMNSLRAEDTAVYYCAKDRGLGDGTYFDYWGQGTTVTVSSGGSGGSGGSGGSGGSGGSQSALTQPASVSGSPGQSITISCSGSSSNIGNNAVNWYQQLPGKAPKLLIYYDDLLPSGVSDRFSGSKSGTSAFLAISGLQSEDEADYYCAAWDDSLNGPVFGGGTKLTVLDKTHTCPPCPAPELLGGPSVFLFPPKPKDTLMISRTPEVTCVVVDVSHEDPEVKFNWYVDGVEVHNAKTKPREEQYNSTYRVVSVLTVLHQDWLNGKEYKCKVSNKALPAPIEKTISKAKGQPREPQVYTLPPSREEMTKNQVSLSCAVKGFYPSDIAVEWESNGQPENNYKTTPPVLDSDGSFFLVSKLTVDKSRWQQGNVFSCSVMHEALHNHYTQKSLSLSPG
notes: CD19, wt Fc, NKG2D(KYK-2.0)
binding result [1]: binds

B2: 2Fab-1scFv-AFc-4 (bispecific antibody, human IgG1, kappa)
heavy: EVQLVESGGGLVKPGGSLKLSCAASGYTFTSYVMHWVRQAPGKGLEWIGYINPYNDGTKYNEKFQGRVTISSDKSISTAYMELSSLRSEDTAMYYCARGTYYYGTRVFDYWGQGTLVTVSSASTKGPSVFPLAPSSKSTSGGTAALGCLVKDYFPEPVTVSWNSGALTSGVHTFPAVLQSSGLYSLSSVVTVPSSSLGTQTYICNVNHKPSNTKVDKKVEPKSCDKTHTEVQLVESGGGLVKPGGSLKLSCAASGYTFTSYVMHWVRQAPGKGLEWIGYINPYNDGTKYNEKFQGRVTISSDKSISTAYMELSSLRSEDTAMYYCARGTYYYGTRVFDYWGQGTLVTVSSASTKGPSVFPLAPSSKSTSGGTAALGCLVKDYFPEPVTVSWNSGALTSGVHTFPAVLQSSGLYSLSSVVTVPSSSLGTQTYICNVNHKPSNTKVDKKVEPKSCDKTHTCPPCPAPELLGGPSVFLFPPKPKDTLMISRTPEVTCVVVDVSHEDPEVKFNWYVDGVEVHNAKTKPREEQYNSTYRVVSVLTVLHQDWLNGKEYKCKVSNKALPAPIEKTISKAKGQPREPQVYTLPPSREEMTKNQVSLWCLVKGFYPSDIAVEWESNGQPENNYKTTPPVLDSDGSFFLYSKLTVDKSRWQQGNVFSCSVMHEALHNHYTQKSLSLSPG
light: B1 light
chain: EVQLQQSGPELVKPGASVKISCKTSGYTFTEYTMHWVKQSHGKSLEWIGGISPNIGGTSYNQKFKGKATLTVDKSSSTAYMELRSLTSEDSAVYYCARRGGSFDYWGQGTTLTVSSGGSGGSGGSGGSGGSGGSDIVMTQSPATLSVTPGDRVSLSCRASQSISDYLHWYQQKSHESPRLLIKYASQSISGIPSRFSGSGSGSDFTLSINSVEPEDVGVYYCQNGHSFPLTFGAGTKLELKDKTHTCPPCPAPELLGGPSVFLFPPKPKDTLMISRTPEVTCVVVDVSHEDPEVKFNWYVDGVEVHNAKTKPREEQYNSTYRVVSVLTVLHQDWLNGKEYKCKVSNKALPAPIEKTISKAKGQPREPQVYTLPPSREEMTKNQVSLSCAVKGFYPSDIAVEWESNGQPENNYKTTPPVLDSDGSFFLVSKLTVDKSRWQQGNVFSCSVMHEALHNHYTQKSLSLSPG
notes: CD19, wt Fc, NKp46(NKp46-3)
binding result [1]: binds

B3: IG-scDb-1 (other)
heavy: EVQLVESGGGLVKPGGSLKLSCAASGYTFTSYVMHWVRQAPGKGLEWIGYINPYNDGTKYNEKFQGRVTISSDKSISTAYMELSSLRSEDTAMYYCARGTYYYGTRVFDYWGQGTLVTVSSASTKGPSVFPLAPSSKSTSGGTAALGCLVKDYFPEPVTVSWNSGALTSGVHTFPAVLQSSGLYSLSSVVTVPSSSLGTQTYICNVNHKPSNTKVDKKVEPKSCDKTHTCPPCPAPEFEGGPSVFLFPPKPKDTLMISRTPEVTCVVVAVSHEDPEVKFNWYVDGVEVHNAKTKPREEQYGSTYRVVSVLTVLHQDWLNGKEYKCKVSNKALPAPIEKTISKAKGQPREPQVYTLPPSREEMTKNQVSLTCLVKGFYPSDIAVEWESNGQPENNYKTTPPVLDSDGSFFLYSKLTVDKSRWQQGNVFSCSVMHEALHNHYTQKSLSLSPGGGGGSGGGGSSYELTQPLSVSVALGQTARITCGGHNIGSKNVHWYQQKPGQAPVLVIYQDNKRPSGIPERFSGSNSGNTATLTISRAQAGDEADYYCQVWDNYNVLFGCGTKLTVLGGSGGSQVQLVESGGGLVKPGGSLRLSCAASGFTFSSYGMHWVRQAPGKGLEWVAFIRYDGSNKYYADSVKGRFTISRDNSKNTLYLQMNSLRAEDTAVYYCAKDRGLGDGTYFDYWGQGTTVTVSSGGSGGSGGSGGSGGSGGSQSALTQPASVSGSPGQSITISCSGSSSNIGNNAVNWYQQLPGKAPKLLIYYDDLLPSGVSDRFSGSKSGTSAFLAISGLQSEDEADYYCAAWDDSLNGPVFGGGTKLTVLGGSGGSQVQLVQSGAEVKKPGASVKVSCKASGYTFTSYYMHWVRQAPGQCLEWMGAIEPTYGSTSYAQKFQGRVTMTRDTSTSTVYMELSSLRSEDTAVYYCARGSAYYYDFADYWGQGTLVTVSS
light: B1 light
notes: trispecific construct: target CD19, effector domains CD16A(P2C47var50) and NKG2D(KYK-2.0)
Kd [2]: 4090 nM

B4: 2Fab-1scFv-AFc-2 (bispecific antibody, human IgG1, kappa)
heavy: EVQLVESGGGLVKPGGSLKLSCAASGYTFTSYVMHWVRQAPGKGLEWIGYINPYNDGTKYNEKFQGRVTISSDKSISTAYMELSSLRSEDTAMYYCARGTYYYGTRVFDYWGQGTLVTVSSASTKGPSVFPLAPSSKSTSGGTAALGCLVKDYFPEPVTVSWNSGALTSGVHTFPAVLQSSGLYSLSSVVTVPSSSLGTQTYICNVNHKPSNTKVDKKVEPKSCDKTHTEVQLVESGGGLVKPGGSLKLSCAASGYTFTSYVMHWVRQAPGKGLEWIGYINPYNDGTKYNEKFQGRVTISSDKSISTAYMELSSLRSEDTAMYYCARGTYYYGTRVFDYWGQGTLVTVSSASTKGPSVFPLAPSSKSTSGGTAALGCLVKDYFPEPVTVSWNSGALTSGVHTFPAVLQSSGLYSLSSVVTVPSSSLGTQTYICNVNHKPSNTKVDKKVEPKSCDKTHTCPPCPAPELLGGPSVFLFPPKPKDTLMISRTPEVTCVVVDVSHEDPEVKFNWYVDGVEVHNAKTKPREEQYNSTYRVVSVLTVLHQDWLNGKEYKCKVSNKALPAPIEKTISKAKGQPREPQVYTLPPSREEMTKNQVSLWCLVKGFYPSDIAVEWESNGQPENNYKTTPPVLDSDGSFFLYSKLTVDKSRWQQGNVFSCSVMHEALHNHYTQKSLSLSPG
light: B1 light
chain: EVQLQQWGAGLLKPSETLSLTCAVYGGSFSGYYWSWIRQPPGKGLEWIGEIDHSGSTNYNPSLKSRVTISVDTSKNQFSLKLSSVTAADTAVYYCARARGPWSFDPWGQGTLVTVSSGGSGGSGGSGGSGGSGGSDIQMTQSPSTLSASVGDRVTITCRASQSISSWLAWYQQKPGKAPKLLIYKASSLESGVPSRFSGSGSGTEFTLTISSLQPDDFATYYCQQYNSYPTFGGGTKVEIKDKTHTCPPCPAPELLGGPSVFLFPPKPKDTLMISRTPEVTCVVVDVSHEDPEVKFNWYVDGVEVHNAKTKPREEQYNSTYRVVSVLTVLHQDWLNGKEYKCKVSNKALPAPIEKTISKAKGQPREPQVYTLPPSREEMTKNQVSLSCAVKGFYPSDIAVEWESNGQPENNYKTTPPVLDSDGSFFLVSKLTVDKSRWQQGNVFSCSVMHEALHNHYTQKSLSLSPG
notes: CD19, wt Fc, NKG2D(ADI-27743)
binding result [1]: binds

B5: 2Fab-1scFv-AFc-3 (bispecific antibody, human IgG1, kappa)
heavy: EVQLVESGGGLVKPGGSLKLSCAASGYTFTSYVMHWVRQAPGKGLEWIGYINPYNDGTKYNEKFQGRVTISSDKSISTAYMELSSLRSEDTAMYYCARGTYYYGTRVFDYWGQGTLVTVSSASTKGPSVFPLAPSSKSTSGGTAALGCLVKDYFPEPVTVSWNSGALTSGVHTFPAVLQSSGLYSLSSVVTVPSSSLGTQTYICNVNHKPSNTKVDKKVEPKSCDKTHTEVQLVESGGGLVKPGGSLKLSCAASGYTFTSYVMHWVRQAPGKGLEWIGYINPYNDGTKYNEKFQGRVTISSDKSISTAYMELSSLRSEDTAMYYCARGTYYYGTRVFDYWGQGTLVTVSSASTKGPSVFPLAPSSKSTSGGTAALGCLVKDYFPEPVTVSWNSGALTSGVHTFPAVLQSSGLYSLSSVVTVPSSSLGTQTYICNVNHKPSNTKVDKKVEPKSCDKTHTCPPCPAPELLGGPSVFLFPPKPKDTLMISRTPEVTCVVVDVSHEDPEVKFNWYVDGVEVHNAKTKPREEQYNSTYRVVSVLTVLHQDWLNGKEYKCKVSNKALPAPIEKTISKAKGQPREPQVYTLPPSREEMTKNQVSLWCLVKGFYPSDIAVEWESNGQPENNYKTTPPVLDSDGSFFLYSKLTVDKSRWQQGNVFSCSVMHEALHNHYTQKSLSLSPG
light: B1 light
chain: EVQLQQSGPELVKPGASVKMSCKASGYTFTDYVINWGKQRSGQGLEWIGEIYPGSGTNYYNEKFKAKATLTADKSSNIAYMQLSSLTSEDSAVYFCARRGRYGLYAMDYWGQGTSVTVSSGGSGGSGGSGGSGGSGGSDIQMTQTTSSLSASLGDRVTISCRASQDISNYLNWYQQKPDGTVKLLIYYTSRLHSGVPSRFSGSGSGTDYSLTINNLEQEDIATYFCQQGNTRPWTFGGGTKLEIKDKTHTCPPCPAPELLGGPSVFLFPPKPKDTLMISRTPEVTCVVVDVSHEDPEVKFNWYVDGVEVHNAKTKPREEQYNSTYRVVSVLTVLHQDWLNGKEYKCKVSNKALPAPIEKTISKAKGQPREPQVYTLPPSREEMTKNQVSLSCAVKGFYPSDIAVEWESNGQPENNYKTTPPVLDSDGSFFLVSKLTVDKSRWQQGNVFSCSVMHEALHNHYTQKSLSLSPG
notes: CD19, wt Fc, NKp46(NKp46-1)
Kd [3]: 38.1 nM
Kd [4]: 682 nM

B6: 1Fab-AFc-1Fab-1 (bispecific antibody, human IgG1, kappa)
chain 1: not shown
chain 2: EVQLVESGGGLVKPGGSLKLSCAASGYTFTSYVMHWVRQAPGKGLEWIGYINPYNDGTKYNEKFQGRVTISSDKSISTAYMELSSLRSEDTAMYYCARGTYYYGTRVFDYWGQGTLVTVSSASTKGPSVFPLAPSSKSTSGGTAALGCLVKDYFPEPVTVSWNSGALTSGVHTFPAVLQSSGLYSLSSVVTVPSSSLGTQTYICNVNHKPSNTKVDKKVEPKSCDKTHTCPPCPAPELLGGPSVFLFPPKPKDTLMISRTPEVTCVVVDVSHEDPEVKFNWYVDGVEVHNAKTKPREEQYNSTYRVVSVLTVLHQDWLNGKEYKCKVSNKALPAPIEKTISKAKGQPREPQVYTLPPSREEMTKNQVSLSCAVKGFYPSDIAVEWESNGQPENNYKTTPPVLDSDGSFFLVSKLTVDKSRWQQGNVFSCSVMHEALHNHYTQKSLSLSPGSTGSQVQLQQSGPELVKPGASVKMSCKASGYTFTDYVINWGKQRSGQGLEWIGEIYPGSGTNYYNEKFKAKATLTADKSSNIAYMQLSSLTSEDSAVYFCARRGRYGLYAMDYWGQGTSVTVSSRTVAAPSVFIFPPSDEQLKSGTASVVCLLNNFYPREAKVQWKVDNALQSGNSQESVTEQDSKDSTYSLSSTLTLSKADYEKHKVYACEVTHQGLSSPVTKSFNRGEC
chain 3: DIQMTQTTSSLSASLGDRVTISCRASQDISNYLNWYQQKPDGTVKLLIYYTSRLHSGVPSRFSGSGSGTDYSLTINNLEQEDIATYFCQQGNTRPWTFGGGTKLEIKASTKGPSVFPLAPSSKSTSGGTAALGCLVKDYFPEPVTVSWNSGALTSGVHTFPAVLQSSGLYSLSSVVTVPSSSLGTQTYICNVNHKPSNTKVDKKVEPKSCDKTH
notes: CD19, wt Fc, NKp46(NKp46-1); also called ComparatorA_1
Kd [5]: 22.7 nM
Kd [6]: 286 nM

B7: 1Fab-AFc-1Fab-5 (bispecific antibody, human IgG1, kappa)
chain 1: DIVMTQSPATLSLSPGERATLSCRSSKSLQNVNGNTYLYWFQQKPGQSPQLLIYRMSNLNSGVPDRFSGSGSGTEFTLTISSLEPEDFAVYYCMQHLEYPITFGAGTKLEIKRTVAAPSVFIFPPSDEQLKSGTASVVCLLNNFYPREAKVQWKVDNALQSGNSQESVTEQDSKDSTYSLSSTLTLSKADYEKHKVYACEVTHQGLSSPVTKSFNRGECDKTHTCPPCPAPELLGGPDVFLFPPKPKDTLMISRTPEVTCVVVDVSHEDPEVKFNWYVDGVEVHNAKTKPREEQYNSTYRVVSVLTVLHQDWLNGKEYKCKVSNKALPAPEEKTISKAKGQPREPQVYTLPPSREEMTKNQVSLWCLVKGFYPSDIAVEWESNGQPENNYKTTPPVLDSDGSFFLYSKLTVDKSRWQQGNVFSCSVMHEALHNHYTQKSLSLSPGK
chain 2: B6 chain 2 with S243D, I336E
chain 3: B6 chain 3
notes: CD19, Fc-enhanced Fc, NKp46(NKp46-1); also called ComparatorA_5
Kd [7]: 15.9 nM
Kd [8]: 1050 nM

B8: 1Fab-AFc-1Fab-2 (bispecific antibody, human IgG1, kappa)
chain 1: not shown
chain 2: EVQLVESGGGLVKPGGSLKLSCAASGYTFTSYVMHWVRQAPGKGLEWIGYINPYNDGTKYNEKFQGRVTISSDKSISTAYMELSSLRSEDTAMYYCARGTYYYGTRVFDYWGQGTLVTVSSASTKGPSVFPLAPSSKSTSGGTAALGCLVKDYFPEPVTVSWNSGALTSGVHTFPAVLQSSGLYSLSSVVTVPSSSLGTQTYICNVNHKPSNTKVDKKVEPKSCDKTHTCPPCPAPELLGGPSVFLFPPKPKDTLMISRTPEVTCVVVDVSHEDPEVKFNWYVDGVEVHNAKTKPREEQYNSTYRVVSVLTVLHQDWLNGKEYKCKVSNKALPAPIEKTISKAKGQPREPQVYTLPPSREEMTKNQVSLSCAVKGFYPSDIAVEWESNGQPENNYKTTPPVLDSDGSFFLVSKLTVDKSRWQQGNVFSCSVMHEALHNHYTQKSLSLSPGSTGSEVQLQQSGPELVKPGASVKISCKTSGYTFTEYTMHWVKQSHGKSLEWIGGISPNIGGTSYNQKFKGKATLTVDKSSSTAYMELRSLTSEDSAVYYCARRGGSFDYWGQGTTLTVSSRTVAAPSVFIFPPSDEQLKSGTASVVCLLNNFYPREAKVQWKVDNALQSGNSQESVTEQDSKDSTYSLSSTLTLSKADYEKHKVYACEVTHQGLSSPVTKSFNRGEC
chain 3: DIVMTQSPATLSVTPGDRVSLSCRASQSISDYLHWYQQKSHESPRLLIKYASQSISGIPSRFSGSGSGSDFTLSINSVEPEDVGVYYCQNGHSFPLTFGAGTKLELKASTKGPSVFPLAPSSKSTSGGTAALGCLVKDYFPEPVTVSWNSGALTSGVHTFPAVLQSSGLYSLSSVVTVPSSSLGTQTYICNVNHKPSNTKVDKKVEPKSCDKTH
notes: CD19, wt Fc, NKp46(NKp46-3); also called ComparatorA_2
Kd [9]: 23.9 nM
Kd [10]: 48 nM
Kd [2]: 1150 nM
